Assay results taken from US7144731B2, “SCF antibody compositions and methods of using the same” (Amgen Inc., priority 1989, dated 2006).

Key:
human c-kit (hckit-LT1) = molecular target: T1, human c-kit (hckit-LT1) (Homo sapiens, UniProt P10721); assay: ^125I-SCF^1-164 binding to recombinant c-kit in COS-1 cells
T1 construct: expressed in transfected cells; host or cells: COS-1 cells transfected with V19.8 carrying c-kit cDNA cloned from HEL cells; membrane fractions used
Source text: (§1) To test whether SCF^1-164 is the ligand for c-kit, the cDNA for the entire murine c-kit [Qiu et al., EMBO J., 7, 1003–1011 (1988)] was amplified using PCR from the SCF^1-164 responsive mast cell line MC/9 [Nabel et al., Nature, 291, 332–334 (1981)] with primers designed from the published sequence. The ligand binding and transmembrane domains of human c-kit, encoded by amino acids 1–549 [Yarden et al., EMBO J., 6, 3341–3351 (1987)], were cloned using similar techniques from the human erythroleukemia cell line, HEL [Martin and Papayannopoulou, Science, 216, 1233–1235 (1982)]. The c-kit cDNAs were inserted into the mammalian expression vector V19.8 transfected into COS-1 cells, and membrane fractions prepared for binding assays using either rat or human ^125I-SCF^1-164 according to the methods described in Sections B and C below. […] There was no detectable specific binding of ^125I human SCF^1-164 to COS-1 cells transfected with V19.8 alone. However, COS-1 cells expressing human recombinant c-kit ligand binding plus transmembrane domains (hckit-LT1) did bind ^125I-hSCF^1-164 (Table 17). The addition of a 200 fold molar excess of unlabelled human SCF^1-164 reduced binding to background levels. Similarly, COS-1 cells transfected with the full length murine c-kit (mckit-L1) bound rat ^125I-SCF^1-164. […] This finding is in accord with the broad cellular distribution of c-kit expression. Rat ^125I-SCF^1-164 binds similarly to both human and murine c-kit, while human ^125I-SCF^1-164 bind with lower activity to murine c-kit (Table 17).
(§2) Human and murine c-kit cDNA clones were derived using PCR techniques [Saiki et al., Science, 239, 487–491 (1988)] from total RNA isolated by an acid phenol/chloroform extraction procedure [Chomczynsky and Sacchi, Anal. Biochem., 162, 156–159, (1987)] from the human erythroleukemia cell line HEL and MC/9 cells, respectively. Unique sequence oligonucleotides were designed from the published human and murine c-kit sequences. First strand cDNA was synthesized from the total RNA according to the protocol provided with the enzyme, Mo-MLV reverse transcription (Bethesda Research Laboratories, Bethesda, Md.), using c-kit antisense oligonucleotides as primers. Amplification of overlapping regions of the c-kit ligand binding and tyrosine kinase domains was accomplished using appropriate pairs of c-kit primers. These regions were cloned into the mammalian expression vector V19.8 (FIG. 17) for expression in COS-1 cells. […] A clone free of these mutations was constructed by reassembly of mutation-free restriction fragments from separate clones. […]

murine c-kit (mckit-L1) = molecular target: T2, murine c-kit (mckit-L1) (Mus musculus, UniProt P05532); assay: as above
T2 construct: expressed in transfected cells; host or cells: COS-1 cells transfected with V19.8 carrying c-kit cDNA cloned from MC/9 mast cells; membrane fractions used
T2 sequence (P05532 25-979): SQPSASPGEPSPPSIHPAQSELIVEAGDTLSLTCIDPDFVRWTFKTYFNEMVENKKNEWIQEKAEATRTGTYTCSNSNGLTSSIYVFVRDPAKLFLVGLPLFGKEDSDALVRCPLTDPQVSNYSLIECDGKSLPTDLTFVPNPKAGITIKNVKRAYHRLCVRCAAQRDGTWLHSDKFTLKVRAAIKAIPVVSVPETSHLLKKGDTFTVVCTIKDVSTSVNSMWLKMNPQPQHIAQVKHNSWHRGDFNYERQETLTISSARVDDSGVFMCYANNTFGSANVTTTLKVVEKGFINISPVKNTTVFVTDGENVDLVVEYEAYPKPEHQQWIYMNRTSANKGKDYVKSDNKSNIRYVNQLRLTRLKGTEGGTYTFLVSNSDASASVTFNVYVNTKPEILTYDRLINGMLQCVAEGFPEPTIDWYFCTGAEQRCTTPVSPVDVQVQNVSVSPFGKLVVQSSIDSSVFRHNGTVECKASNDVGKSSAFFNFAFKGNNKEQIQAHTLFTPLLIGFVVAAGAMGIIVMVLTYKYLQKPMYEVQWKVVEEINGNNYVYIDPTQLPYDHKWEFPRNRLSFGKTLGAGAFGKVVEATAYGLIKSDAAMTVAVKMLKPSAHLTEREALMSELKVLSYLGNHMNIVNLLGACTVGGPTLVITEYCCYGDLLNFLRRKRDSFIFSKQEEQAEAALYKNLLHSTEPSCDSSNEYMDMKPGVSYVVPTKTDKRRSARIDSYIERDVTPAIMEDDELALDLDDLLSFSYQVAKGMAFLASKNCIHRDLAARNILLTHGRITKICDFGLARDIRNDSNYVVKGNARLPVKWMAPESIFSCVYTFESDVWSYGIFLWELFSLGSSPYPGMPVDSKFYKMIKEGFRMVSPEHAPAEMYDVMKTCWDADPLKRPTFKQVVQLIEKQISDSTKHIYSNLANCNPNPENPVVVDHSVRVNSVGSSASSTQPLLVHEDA
Source text: as §1, §2

[1] = test system: COS-1 cells (endogenous c-kit); assay: ^125I-SCF^1-164 binding to COS-1 cells transfected with V19.8 alone
Source text: To test whether SCF^1-164 is the ligand for c-kit, the cDNA for the entire murine c-kit [Qiu et al., EMBO J., 7, 1003–1011 (1988)] was amplified using PCR from the SCF^1-164 responsive mast cell line MC/9 [Nabel et al., Nature, 291, 332–334 (1981)] with primers designed from the published sequence. The ligand binding and transmembrane domains of human c-kit, encoded by amino acids 1–549 [Yarden et al., EMBO J., 6, 3341–3351 (1987)], were cloned using similar techniques from the human erythroleukemia cell line, HEL [Martin and Papayannopoulou, Science, 216, 1233–1235 (1982)]. The c-kit cDNAs were inserted into the mammalian expression vector V19.8 transfected into COS-1 cells, and membrane fractions prepared for binding assays using either rat or human ^125I-SCF^1-164 according to the methods described in Sections B and C below. […] There was no detectable specific binding of ^125I human SCF^1-164 to COS-1 cells transfected with V19.8 alone. However, COS-1 cells expressing human recombinant c-kit ligand binding plus transmembrane domains (hckit-LT1) did bind ^125I-hSCF^1-164 (Table 17). The addition of a 200 fold molar excess of unlabelled human SCF^1-164 reduced binding to background levels. […]
Two days after transfection, the COS-1 cells were scraped from the dish, washed in PBS, and frozen until use. […] The pellets were clipped off and membrane associated ^125I-SCF^1-164 was quantitated.

B1: rrSCF^1-164: recombinant rat SCF^1-164 from E. coli, also used ^125I-labelled (protein)
chain: QEICRNPVTDNVKDITKLVANLPNDYMITLNYVAGMDVLPSHCWLRDMVTHLSVSLTTLLDKFSNISEGLSNYSIIDKLGKIVDDLVACMEENAPKNVKESLKKPETRNFTPEEFFSIFNRSIDAFKDFMVASDTSDCVLSSTLGPEKDSRVSVTKPFMLPPVA
**Q.** How did the “CPM Bound, ^125I-SCF + cold” value (human c-kit (hckit-LT1); 1.6 nM ^125I-SCF^1-164 + 320 nM unlabelled SCF^1-164, V19.8:hckit-LT1) turn out when B1 was run?
**A.** 1,100 CPM

**Q.** And the “CPM Bound, ^125I-SCF” value (human c-kit (hckit-LT1); 1.6 nM ^125I-SCF^1-164, plasmid V19.8:hckit-LT1)?
**A.** 70,000 CPM

**Q.** What about the “CPM Bound, ^125I-SCF + cold” value (murine c-kit (mckit-L1); 1.6 nM ^125I-SCF^1-164 + 320 nM unlabelled SCF^1-164, V19.8:mckit-L1) of the same molecule?
**A.** 600 CPM

**Q.** What about the “CPM Bound, ^125I-SCF” value (murine c-kit (mckit-L1); 1.6 nM ^125I-SCF^1-164, plasmid V19.8:mckit-L1) of the same molecule?
**A.** 52,700 CPM

**Q.** And the “CPM Bound, ^125I-SCF + cold” value ([1]; 1.6 nM ^125I-SCF^1-164 + 320 nM unlabelled SCF^1-164, V19.8)?
**A.** 550 CPM

**Q.** And the “CPM Bound, ^125I-SCF” value ([1]; 1.6 nM ^125I-SCF^1-164, plasmid V19.8)?
**A.** 1,100 CPM
